Source: patent US5070188A, “Acylated epidermal growth factor” (Ethicon, Inc., priority 1989, dated 1991)
Values joined by “and” are separate entries in the source; they are usually repeats but may differ in a detail not shown here. Equal entries are not always repeated.

What was measured:
trypsin = molecular target: T1, trypsin (Bos taurus, UniProt P00760); assay: in vitro susceptibility to proteolytic degradation (tryptic digestion, HPLC); assay type: in vitro ADME
T1 construct: purchased Worthington Biochem Corp
T1 sequence (P00760 24-246): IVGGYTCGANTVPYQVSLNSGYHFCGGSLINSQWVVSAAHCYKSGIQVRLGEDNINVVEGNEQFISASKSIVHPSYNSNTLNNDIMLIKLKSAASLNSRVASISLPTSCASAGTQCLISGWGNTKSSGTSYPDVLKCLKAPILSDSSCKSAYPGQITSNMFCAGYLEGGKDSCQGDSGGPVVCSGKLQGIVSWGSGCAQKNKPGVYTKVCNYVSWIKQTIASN

[1] = shelf stability, activity followed with the Receptor Binding Assay; assay type: physicochemical; conditions: for activity retained (RBA), 2 months/37° C.: stored 2 months at 37° C.; for activity retained (RBA), 2 months/4° C.: stored 2 months at 4° C.
Source text: Samples are further analyzed by testing the biological activity in the Receptor Binding Assay (RBA) system and/or in a mitogenic assay system according to the standard procedure. Under these conditions, the extent of activity of modified EGF was compared with that of the unmodified EGF on a weight per weight basis. A similar test is used to follow the stability of EGF products. The RBA is described in Savage et al., Analytical Biochem, 111, pages 195 et seq. (1981) and in U.S. Pat. No. 4,717,717. For RBA studies, a cell line with a high density of receptors for EGF is grown to confluency in microwell plates. After removing the growth media and slightly fixing the cells, the binding of modified EGF to the cell surface in the presence of competing iodinated-EGF is compared with the binding of non-radioactive, unmodified EGF under the same conditions. The concentration of modified EGF is extrapolated from the standard curve made for unmodified EGF. Acylated EGF with acyl side chains ranging from C2 to C8 retained biological activity according to the RBA.
The shelf stability of EGF and acylated EGF derivatives with different degrees of modification and acyl side chains was studied using the Receptor Binding Assay (RBA) system. […]

EGF sensitive cell line = assay: mitogenic assay, tritium labelled thymidine incorporation; assay type: cell-based; conditions: compared with C2 acylated EGF
Description: For mitogenic assay systems, an EGF sensitive cell line is grown to confluency at the bottom of microwell plates. After replacing the regular growth media with growth factor poor media, modified EGF is added with tritium labelled thymidine. The extent of incorporation of the tritium labelled thymidine in the presence and absence of growth factors is then weighed. The effects of modified EGF are compared with those of unmodified EGF under the same system.

Substance | activity retained (RBA), 2 months/37° C. [1] | activity retained (RBA), stored time 0 [1] [%] | activity retained (RBA), 2 months/4° C. [1] | further results
C2 -EGF: human EGF triacylated with acetyl groups | 87.37% and 88% | 100 | – | remaining fraction that resisted proteolysis (trypsin; mixture C2-EGF:native EGF 1.5 to 1, TPCK-trypsin, up to 4 hours incubation): 75-80%; fraction that resisted proteolytic cleavage at Arg 41 and Arg 45 (trypsin; trypsin, over 4 hours incubation at 30° C.): over 75%; tryptic fragments generated (HPLC, cation exchanger column) (trypsin; tryptic digestion, substance alone): did not generate any fragment; improvement of retained activity over control unmodified native EGF ([1]; stored at 37° C., 2 months): 30%
C6 -EGF: acylated human EGF with C6 acyl side chain | 66.94% | 100 | 61.88% | –
C8 -EGF: acylated human EGF with C8 acyl side chain | 69.04% | 100 | 83.19% | –
C12: acylated EGF having an acyl side chain of C12 | – | – | – | reactivity in the mitogenic assay (EGF sensitive cell line): nearly as reactive as C2
Control EGF: Recombinantly produced human EGF (Chiron Corporation), unmodified 53 amino acid polypeptide, used as control [reference compound] | 57.52% and 58% | 100 | 81.09% and 81% | fraction digested (trypsin; mixture C2-EGF:native EGF 1.5 to 1, TPCK-trypsin, within about 20 minutes): over 85%; cleavage by trypsin (trypsin; within 5 minutes post-incubation, 30° C.): over 65%; remaining molecules cleaved by trypsin (trypsin; within 2 hours post-incubation): 35%
